{
  "source": "patent US6107069A",
  "about": "“Recombinant kynurenine-3-hydroxylase enzyme and process for its preparation” (priority 1996, dated 2000)",
  "key": {"[1]": {"assay": "Rat kyn-3-OHase activity expressed in X. laevis oocytes (conversion of L-kyn to 3-OH-Kyn)", "format": "biochemical", "experimental": "Individual oocytes of stages were obtained by gentle agitation in ND solution plus 1-2mg/ml collagenase for 60-90 min. They were then maintained at 18° C. in ND solution enriched with 1.8 mM CaCl2 and 20 mg/l gentamycin. Oocytes of stages 5 and 6 were injected 24 hours later with 50 nl RNA or water (N. Dascal and I. Lotan 1992. Methods in Mol. Biol. 13: 205-225).\nOocytes were injected with a Drummond Nanoject microdispenser. To avoid accidental injection into the nucleus, the needle was inserted close to the equator or in the vegetal (light) half of the oocytes. 1-3 days after injection the oocytes were assayed for kyn-3-OHase.\nPlasmid DNA was isolated by standard procedures (alkaline lysis followed by a purification on Qiagen resin; Kontron Zurich). Plasmids were linearized with Not I and used for in vitro synthesis and capping of cRNA using T7 RNA polymerase (Stratagene) and following the supplier's instructions. Initially the library was divided into 25 pools of ~2000 colonies; cRNA obtained transcribing the insert of each pool of colonies was injected in the oocytes and screened for the expressed kyn-3-Ohase activity (See Example 1c for the methods). The positive pool identified for its kyn-3-OHase expressed activity (175 pmoles/h/mg protein: about 30 fold higher than that induced by the injection of total kidney poly (A)^+ RNA) was then split into several sub-pools and assayed with the same procedure.\nXenopus l. oocytes were first injected with 25 ng of poly(A)^+ RNA isolated from rat kidney.\nIncreasing doses (range 0.1-25 ng) of cRNA, obtained from the positive clone, were injected into oocytes which were then tested for kyn-3-OHase activity in the presence of 100 mM of L-kyn. A linear dose-dependent effect was observed up to 5 ng cRNA/oocyte. At this dose the kyn-3-OHase activity was 35.7 nmoles/h/mg protein. No further increase of the activity was measured when higher cRNA doses were injected."}, "[2]": {"details": "purified from rat liver (Nisimoto 1975); cited from earlier work"}, "[3]": {"details": "5 steps purification from rat liver (Nisimoto 1975); cited from earlier work"}, "[4]": {"assay": "Activity of recombinant kyn-3-OHase expressed in E. coli (conversion of L-kyn to 3-OH-Kyn)", "format": "biochemical, human", "details": "cells induced 2 h at 37° C. with 1 mM IPTG; 500 μM L-kyn, 1 hour at 37° C.", "experimental": "Recombinant kyn-3-OHase activity measured in cells grown at 37° C. until the OD600 reached 0.6, induced for 2 hours at 37° C. adding 1 mM IPTG was about 10 nmol/h·mg protein, enzymatic activity of uninduced cells in the same conditions was less than 5% (homogenates incubated for 1 hour at 37° C. with 500 μM L-kyn; see Example 5c)."}, "[5]": {"details": "last round of library screening, cRNA-injected oocytes"}},
  "data": [
    {"molecule": "positive clone: cDNA clone encoding rat kyn-3-OHase, a deduced protein of 478 amino acid residues, expressed in Xenopus oocytes (protein) MASSDTEGKRVVVIGGGLVGALNACFLAKRNFQVDVYEAREDIRVANFMRGRSINLALSYRGRQALKAVGLEDQIVSKGVPMKARMIHSLSGKKSAIPYGNKSQYILSISREKLNKDLLTAVESYPNAKVHFGHKLSKCCPEEGILTMLGPNKVPRDITCDLIVGCDGAYSTVRAHLMKKPRFDYSQQYIPHGYMELTIPPKNGEYAMEPNCLHIWPRNAFMMIALPNMDKSFTCTLFMSFEEFEKLPTHSDVLDFFQKNFPDAIPLMGEQALMRDFFLLPAQPMISVKCSPFHLKSRCVLMGDAAHAIVPFFGQGMNAGFEDCLVFDELMDKFNNDLSVCLPEFSRFRIPDDHAISDLSMYNYIEMRAHVNSRWFLFQRLLDKFLHALMPSTFIPLYTMVAFTRIRYHEAVLRWHWQKKVINRGLFVLGSLVAIGSAYILVHHLSPRPLELLRSAWTGTSGHWNRSADISPRVPWSH", "values": [
      {"measurement": "kyn-3-OHase activity, cRNA dose-response", "setting": "[1]; 5 ng cRNA/oocyte, 100 mM of L-kyn", "result": 35.7, "unit": "nmoles/h/mg protein"},
      {"measurement": "activity vs that induced by injection of total rat kidney poly(A)+ RNA", "setting": "[1]; [5]", "result": "about 400 fold"},
      {"measurement": "kyn-3-OHase activity, single positive clone", "setting": "[1]; [5]", "result": 3747, "unit": "pmoles/h/mg protein"}
    ]},
    {"molecule": "kyn-3-OHase: kyn-3-OHase isolated from the mitochondrial outer membrane of rat liver, molecular weight of 200,000 Da (protein) MASSDTEGKRVVVIGGGLVGALNACFLAKRNFQVDVYEAREDIRVANFMRGRSINLALSYRGRQALKAVGLEDQIVSKGVPMKARMIHSLSGKKSAIPYGNKSQYILSISREKLNKDLLTAVESYPNAKVHFGHKLSKCCPEEGILTMLGPNKVPRDITCDLIVGCDGAYSTVRAHLMKKPRFDYSQQYIPHGYMELTIPPKNGEYAMEPNCLHIWPRNAFMMIALPNMDKSFTCTLFMSFEEFEKLPTHSDVLDFFQKNFPDAIPLMGEQALMRDFFLLPAQPMISVKCSPFHLKSRCVLMGDAAHAIVPFFGQGMNAGFEDCLVFDELMDKFNNDLSVCLPEFSRFRIPDDHAISDLSMYNYIEMRAHVNSRWFLFQRLLDKFLHALMPSTFIPLYTMVAFTRIRYHEAVLRWHWQKKVINRGLFVLGSLVAIGSAYILVHHLSPRPLELLRSAWTGTSGHWNRSADISPRVPWSH", "values": [
      {"measurement": "isoelectric point", "setting": "[2]", "result": 5.4, "unit": "pH"},
      {"measurement": "specific activity of purified enzyme", "setting": "[3]", "result": 140, "unit": "nmol/min/mg"}
    ]},
    {"molecule": "Recombinant kyn-3-OHase: human kynurenine-3-hydroxylase, deduced protein of 486 amino acid residues, expressed in E. coli (protein, UniProt O15229 1-486, looked up) Kynurenine 3-monooxygenase: MDSSVIQRKKVAVIGGGLVGSLQACFLAKRNFQIDVYEAREDTRVATFTRGRSINLALSHRGRQALKAVGLEDQIVSQGIPMRARMIHSLSGKKSAIPYGTKSQYILSVSRENLNKDLLTAAEKYPNVKMHFNHRLLKCNPEEGMITVLGSDKVPKDVTCDLIVGCDGAYSTVRSHLMKKPRFDYSQQYIPHGYMELTIPPKNGDYAMEPNYLHIWPRNTFMMIALPNMNKSFTCTLFMPFEEFEKLLTSNDVVDFFQKYFPDAIPLIGEKLLVQDFFLLPAQPMISVKCSSFHFKSHCVLLGDAAHAIVPFFGQGMNAGFEDCLVFDELMDKFSNDLSLCLPVFSRLRIPDDHAISDLSMYNYIEMRAHVNSSWFIFQKNMERFLHAIMPSTFIPLYTMVTFSRIRYHEAVQRWHWQKKVINKGLFFLGSLIAISSTYLLIHYMSPRSFLRLRRPWNWIAHFRNTTCFPAKAVDSLEQISNLISR", "values": [
      {"measurement": "Recombinant kyn-3-OHase activity", "setting": "[4]", "result": "about 10 nmol/h·mg protein"}
    ]}
  ]
}
